Source: patent US8263074B2, “Fibroblast growth factor receptor-1 inhibitors and methods of treatment thereof” (ImClone LLC, priority 2003, dated 2012)
Read-outs that look alike come from different tables or passages of the source.

Tests used:
[1] = molecular target: T1, FGFR-1b (Homo sapiens, UniProt P11362); experiment: BiaCore binding kinetics; settings: kinetic analyses
T1 construct: purchased R&D Systems

[2] = molecular target: T2, FGFR-1c (Homo sapiens, UniProt P11362); experiment: BiaCore binding kinetics; settings: kinetic analyses; read-out: KD, FGFR-1c
T2 construct: purchased R&D Systems
T2 sequence (P11362 22-822): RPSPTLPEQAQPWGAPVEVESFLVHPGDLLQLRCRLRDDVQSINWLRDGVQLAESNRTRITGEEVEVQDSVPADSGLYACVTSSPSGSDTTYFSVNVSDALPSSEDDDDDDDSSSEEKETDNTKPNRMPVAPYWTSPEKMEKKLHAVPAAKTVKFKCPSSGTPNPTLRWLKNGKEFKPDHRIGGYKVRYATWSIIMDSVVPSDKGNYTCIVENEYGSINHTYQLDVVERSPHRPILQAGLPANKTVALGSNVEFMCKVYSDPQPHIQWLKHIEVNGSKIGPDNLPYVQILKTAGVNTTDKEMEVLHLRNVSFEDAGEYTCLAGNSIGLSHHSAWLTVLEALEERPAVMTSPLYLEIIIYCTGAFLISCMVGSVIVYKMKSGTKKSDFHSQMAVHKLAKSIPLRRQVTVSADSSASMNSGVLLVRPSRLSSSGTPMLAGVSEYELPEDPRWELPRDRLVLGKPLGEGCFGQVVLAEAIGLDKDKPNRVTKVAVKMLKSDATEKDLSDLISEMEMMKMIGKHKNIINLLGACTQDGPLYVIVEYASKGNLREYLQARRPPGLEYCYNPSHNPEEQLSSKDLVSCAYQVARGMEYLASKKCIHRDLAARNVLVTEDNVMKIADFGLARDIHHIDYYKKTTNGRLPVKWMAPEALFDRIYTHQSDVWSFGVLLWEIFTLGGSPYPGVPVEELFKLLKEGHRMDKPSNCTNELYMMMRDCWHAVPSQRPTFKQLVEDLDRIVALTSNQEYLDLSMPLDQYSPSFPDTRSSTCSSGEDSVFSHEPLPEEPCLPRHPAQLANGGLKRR

[3] = molecular target: T3, FGFR-2b (Homo sapiens, UniProt P21802); experiment: BiaCore binding kinetics; settings: BiaCore kinetic analysis
T3 construct: purchased R&D Systems
T3 sequence (P21802 22-822 isoform P21802-3 limits assumed): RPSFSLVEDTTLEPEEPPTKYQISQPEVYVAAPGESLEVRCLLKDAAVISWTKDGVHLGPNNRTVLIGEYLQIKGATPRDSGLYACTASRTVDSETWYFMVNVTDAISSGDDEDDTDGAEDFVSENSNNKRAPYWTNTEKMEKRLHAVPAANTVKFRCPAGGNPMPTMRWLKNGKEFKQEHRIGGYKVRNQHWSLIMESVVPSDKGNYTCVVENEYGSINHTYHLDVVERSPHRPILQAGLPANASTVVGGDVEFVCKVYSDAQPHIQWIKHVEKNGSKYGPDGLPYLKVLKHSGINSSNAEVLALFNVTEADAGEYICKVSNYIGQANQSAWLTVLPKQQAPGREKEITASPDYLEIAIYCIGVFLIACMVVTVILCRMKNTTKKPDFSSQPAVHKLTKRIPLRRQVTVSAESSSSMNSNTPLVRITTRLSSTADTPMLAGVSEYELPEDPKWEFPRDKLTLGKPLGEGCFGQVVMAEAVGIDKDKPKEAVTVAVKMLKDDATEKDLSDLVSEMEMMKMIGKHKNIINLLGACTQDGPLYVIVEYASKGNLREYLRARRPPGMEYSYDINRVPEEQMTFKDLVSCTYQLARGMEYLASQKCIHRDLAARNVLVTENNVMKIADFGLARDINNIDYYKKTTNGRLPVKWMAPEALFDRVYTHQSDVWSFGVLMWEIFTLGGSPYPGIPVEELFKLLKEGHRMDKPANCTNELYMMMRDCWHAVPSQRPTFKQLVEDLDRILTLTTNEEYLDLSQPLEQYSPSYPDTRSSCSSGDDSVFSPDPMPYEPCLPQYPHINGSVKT

[4] = molecular target: T4, FGFR-2c (Homo sapiens, UniProt P21802); experiment: BiaCore binding kinetics; settings: BiaCore kinetic analysis
T4 construct: purchased R&D Systems
T4 sequence (P21802 22-821): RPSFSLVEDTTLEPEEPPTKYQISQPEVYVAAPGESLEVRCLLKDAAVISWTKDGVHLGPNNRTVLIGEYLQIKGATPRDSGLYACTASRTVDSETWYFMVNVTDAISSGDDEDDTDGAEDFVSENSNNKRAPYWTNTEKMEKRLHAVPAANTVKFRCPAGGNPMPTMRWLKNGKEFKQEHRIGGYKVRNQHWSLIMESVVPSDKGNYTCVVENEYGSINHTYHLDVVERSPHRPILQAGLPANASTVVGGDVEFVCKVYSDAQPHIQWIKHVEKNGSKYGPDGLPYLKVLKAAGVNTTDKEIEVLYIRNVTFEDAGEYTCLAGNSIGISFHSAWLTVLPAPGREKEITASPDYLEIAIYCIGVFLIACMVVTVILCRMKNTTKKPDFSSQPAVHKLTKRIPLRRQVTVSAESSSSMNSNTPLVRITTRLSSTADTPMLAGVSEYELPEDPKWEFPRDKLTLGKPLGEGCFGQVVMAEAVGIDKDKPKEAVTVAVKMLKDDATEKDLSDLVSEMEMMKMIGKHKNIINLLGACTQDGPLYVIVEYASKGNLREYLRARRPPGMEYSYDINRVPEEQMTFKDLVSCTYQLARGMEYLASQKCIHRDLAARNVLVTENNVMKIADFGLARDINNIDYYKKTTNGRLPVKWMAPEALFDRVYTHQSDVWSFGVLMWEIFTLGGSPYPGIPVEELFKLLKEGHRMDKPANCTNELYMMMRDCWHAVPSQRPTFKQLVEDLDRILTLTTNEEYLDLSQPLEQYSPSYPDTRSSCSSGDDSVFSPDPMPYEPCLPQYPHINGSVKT

[5] = molecular target: T5, FGFR-3b (Homo sapiens, UniProt P22607); experiment: BiaCore binding kinetics; settings: BiaCore kinetic analysis
T5 construct: purchased R&D Systems
T5 sequence (P22607 23-808 isoform P22607-2 limits assumed): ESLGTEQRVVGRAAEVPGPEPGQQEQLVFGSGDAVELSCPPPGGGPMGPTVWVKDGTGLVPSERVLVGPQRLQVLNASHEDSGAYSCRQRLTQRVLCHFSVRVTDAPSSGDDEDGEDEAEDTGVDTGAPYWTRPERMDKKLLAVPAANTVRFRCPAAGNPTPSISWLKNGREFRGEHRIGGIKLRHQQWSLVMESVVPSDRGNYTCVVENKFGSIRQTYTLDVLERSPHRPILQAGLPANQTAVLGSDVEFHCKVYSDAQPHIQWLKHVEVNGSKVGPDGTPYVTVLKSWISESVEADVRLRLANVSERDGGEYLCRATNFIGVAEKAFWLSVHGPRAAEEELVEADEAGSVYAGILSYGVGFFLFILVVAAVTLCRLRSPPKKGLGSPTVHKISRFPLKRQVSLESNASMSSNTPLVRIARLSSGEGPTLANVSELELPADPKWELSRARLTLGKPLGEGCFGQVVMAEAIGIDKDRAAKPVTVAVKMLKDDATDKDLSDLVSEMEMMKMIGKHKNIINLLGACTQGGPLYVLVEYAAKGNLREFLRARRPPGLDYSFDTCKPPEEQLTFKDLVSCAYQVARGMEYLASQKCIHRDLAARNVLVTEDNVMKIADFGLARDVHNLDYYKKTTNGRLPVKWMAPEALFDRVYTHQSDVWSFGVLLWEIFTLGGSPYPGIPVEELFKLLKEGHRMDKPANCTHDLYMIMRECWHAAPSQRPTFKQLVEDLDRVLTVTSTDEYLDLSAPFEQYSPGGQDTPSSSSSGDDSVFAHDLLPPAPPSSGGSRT

[6] = molecular target: T6, FGFR-3c (Homo sapiens, UniProt P22607); experiment: BiaCore binding kinetics; settings: BiaCore kinetic analysis
T6 construct: purchased R&D Systems
T6 sequence (P22607 23-806): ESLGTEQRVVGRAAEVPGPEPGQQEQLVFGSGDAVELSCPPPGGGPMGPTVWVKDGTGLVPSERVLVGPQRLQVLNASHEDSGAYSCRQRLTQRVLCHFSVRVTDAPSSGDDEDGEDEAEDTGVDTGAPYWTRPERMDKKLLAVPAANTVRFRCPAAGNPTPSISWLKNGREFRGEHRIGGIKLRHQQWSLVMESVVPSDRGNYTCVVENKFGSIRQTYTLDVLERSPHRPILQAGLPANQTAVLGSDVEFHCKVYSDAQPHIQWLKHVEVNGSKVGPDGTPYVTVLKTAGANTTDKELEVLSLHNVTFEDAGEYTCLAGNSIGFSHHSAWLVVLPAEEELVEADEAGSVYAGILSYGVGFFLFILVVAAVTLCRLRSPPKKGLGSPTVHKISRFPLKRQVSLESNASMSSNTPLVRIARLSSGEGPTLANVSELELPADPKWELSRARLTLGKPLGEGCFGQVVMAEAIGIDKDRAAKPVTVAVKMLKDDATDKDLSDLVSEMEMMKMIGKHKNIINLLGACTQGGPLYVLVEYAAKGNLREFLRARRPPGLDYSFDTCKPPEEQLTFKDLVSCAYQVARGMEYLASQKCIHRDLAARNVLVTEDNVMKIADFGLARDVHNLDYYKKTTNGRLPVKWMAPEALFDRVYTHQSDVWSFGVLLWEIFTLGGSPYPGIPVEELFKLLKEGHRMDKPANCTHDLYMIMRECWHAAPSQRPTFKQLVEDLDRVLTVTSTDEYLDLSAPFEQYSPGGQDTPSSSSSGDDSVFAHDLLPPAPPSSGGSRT

[7] = molecular target: T7, FGFR-4 (Homo sapiens, UniProt P22455); experiment: ELISA binding assay
T7 construct: purchased R&D Systems
T7 sequence (P22455 22-802): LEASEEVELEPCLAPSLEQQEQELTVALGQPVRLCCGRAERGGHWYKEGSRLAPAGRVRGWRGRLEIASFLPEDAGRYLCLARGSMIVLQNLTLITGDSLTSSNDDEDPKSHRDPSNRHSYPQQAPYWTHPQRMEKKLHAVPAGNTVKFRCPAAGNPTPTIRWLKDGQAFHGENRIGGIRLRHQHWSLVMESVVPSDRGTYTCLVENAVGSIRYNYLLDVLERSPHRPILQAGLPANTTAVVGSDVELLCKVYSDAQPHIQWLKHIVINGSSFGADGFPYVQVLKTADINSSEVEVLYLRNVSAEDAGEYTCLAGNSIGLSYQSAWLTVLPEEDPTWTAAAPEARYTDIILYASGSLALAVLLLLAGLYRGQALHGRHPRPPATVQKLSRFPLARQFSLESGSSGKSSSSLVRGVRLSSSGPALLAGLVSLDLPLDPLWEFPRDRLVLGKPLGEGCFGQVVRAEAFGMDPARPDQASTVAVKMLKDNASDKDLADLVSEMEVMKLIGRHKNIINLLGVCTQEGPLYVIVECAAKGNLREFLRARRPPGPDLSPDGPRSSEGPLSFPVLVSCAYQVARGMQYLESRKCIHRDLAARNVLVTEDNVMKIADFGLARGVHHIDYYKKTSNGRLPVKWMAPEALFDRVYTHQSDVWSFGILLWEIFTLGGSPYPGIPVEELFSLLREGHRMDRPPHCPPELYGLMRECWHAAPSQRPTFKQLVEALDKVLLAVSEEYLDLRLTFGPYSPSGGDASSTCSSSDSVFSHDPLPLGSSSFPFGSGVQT
Description: (§1) Recombinant FGFRs (R&D systems) at a concentration of 1 μg/ml in PBS were coated on 96-well plates at room temperature for 2 hrs. The plates were washed 3 times with 0.2% Tween20/PBS, and blocked with 5% milk/PBS for 2 hrs before use. FR1-H7 or FR1-A1 was added to the plate and serially diluted in 0.2% Tween20/PBS. The plate was incubated at room temperature for 2 more hrs. The captured antibodies were detected using an anti-human light chain monoclonal antibody conjugated with […] (Pierce Biotechnology, Rockford, Ill.) solution prepared according to supplier's instructions.

[8] = system: other FGFRs; experiment: ELISA binding assay
Description: as §1

[9] = molecular target: T8, FGFR-1 (Homo sapiens, UniProt P11362); experiment: Phosphorylation assay in FGFR-1 expressing L6 cells (western blot); assay type: cell-based; settings: anti-phospho-tyrosine western blot
T8 construct: expressed in transfected cells; host or cells: L6 (ATCC), pBABE retroviral vector
T8 sequence (P11362 22-822): as the sequence (P11362 22-822) above
Description: FGFR-1 expressing L6 cells were cultured in 10% FBS, DMEM, in a 24-well tissue culture plate till confluency. Cells were Serum starved in 5 μg/ml heparin, 0.1% FBS, DMEM, for 8-24 hrs. Either FR1-H7 or FR1-A1 was added to the media and allowed to bind with the cell surface receptors at 37° C. for 1 hr. Cells were then stimulated with 20 ng/ml FGFs at 37° C. for 10 min before they were lyzed using ice-cold lysis buffer for 30 min. Cell lysate was subjected to SDS-PAGE followed by western blot. Membranes were probed with anti-phospho-tyrosine antibody (Cell Signaling Technology, Inc., Beverly, Mass.) for detection of phosphorylated FGFR-1 receptors according to supplier's instructions.
The phosphorylation assay for small molecules is essentially the same as the phosphorylation assay described in Examples 7 and 15 and Phosphorylation Assay, except that small molecule compounds was used instead of FGFR-1 antibodies in all occasions. […] Equal amount of cell lysates were applied to each sample lane. Receptor auto-phosphorylation was probed using anti-phospho-tyrosine antibody as described in the original patent.

[10] = system: Human astrocytoma G18 cells; experiment: Mitogenesis assay (3H-thymidine); assay type: cell-based; settings: FGF-2 stimulation
Description: Human astrocytoma G18 cells were seeded in 96-well tissue culture plates at a concentration of 5×10^4 cells/ml. After attachment, cells were quiesced for 24 hrs in RPMI media (Invitrogen) containing 0.1% FBS and 5 μg/ml heparin. Antibodies were serially diluted, added to the wells, and incubated with the cells at 37° C. for 1 hr. Recombinant FGF-2 was then added to a final concentration of 5 ng/ml. Cells were cultured in an incubator at 37° C. with 5% CO2. Cell growth was determined 24 hrs later by monitoring ^3H-thymidine incorporation as described previously.

[11] = Repeated-dose study in female athymic nude mice: body weight, food intake, rearing, blood glucose; assay type: in vivo; settings: for body weight loss compared to the control: day 5 after two treatments; for reduction of non-fast food intake: between first and second treatments
Description: Female athymic nude mice (Cr1:NU/NU-nuBR, Charles River Laboratories, Wilmington, Mass.) were housed 4-5 per cage. Mice were given autoclaved food (Lab Diet #5001, PMI Feeds Inc., St. Louis, Mo.) and water ad libitum. All animal use in this study was conducted in compliance with approved institutional animal care and use protocols, and according to NIH guidelines (Guide for the Care and Use of Laboratory Animals, NIH publication no. 86-23, 1985).
In one assay, mice were injected intraperitoneally (i.p.) with FR1-H7 at 0.19, 1.9, and 19 mg/kg body weight (n=5 per group). In another assay, mice were injected subcutaneously (s.c.) with the antibody, at 0.4, 4, and 40 mg/kg body weight. In control arms, mice were treated with saline i.p. or s.c. In addition, one group of mice was left untreated (n=4). All treatments were given at a volume of 10 μl/g body weight in Saline. Treatments were started on a Wednesday (Day 0) with additional treatments on the following Friday, Monday, Wednesday, and Friday. After this 9-day treatment period mice received no additional treatments.
Alternatively, female athymic nude mice were injected (i.p.) with saline, 2 mg/kg, or 20 mg/kg FR1-A1 on a Monday (Day 0) and Wednesday. Body weights were measured before the first injection, and on Day 2 and Day 5. Food intake per group was measured 2 days after the first injection.
The body weights of all animals were measured 3 times/week. Food consumption, behavior, and serum glucose were evaluated as follows. Food Intake Measurement: Prior to the treatment on Day 2 mice were placed in a new cage and the weight of the food container in the cage top was weighed. Prior to the treatment on Day 5 the weight of the food container was measured again. The difference in the Day 2 to Day 5 food container weight was divided by the number of mice per cage and the number of days between the measurements to give a food intake per mouse per 24 hrs. Activity Measurement: On Day 12, 3 days after the final treatment, mice were placed individually into a new cage and the number of rearings was counted over a 1 min period. Blood Glucose Measurement On Day 16, 7 days after the final treatment, non-fasted blood glucose was measured in blood collected from the tip of the tail using an Ascensia Elite XL blood glucose meter (glucose oxidase method, Bayer, Pittsburg, Pa.).

[12] = molecular target: T9, FGFR-1(IIIc) (Homo sapiens, UniProt P11362); experiment: ELISA binding assay; parameters: purchased R&D Systems
T9 sequence (P11362 22-822): as above
Description: as §1

[13] = molecular target: T9, FGFR-1(IIIc); experiment: ELISA blocking assay (receptor binding to immobilized FGF); parameters: purchased R&D Systems
Description: Recombinant FGFs (R&D systems, Minneapolis, Minn.) were coated on Immulon® 2B microtiter plates (ThermoLab Systems, Franklin, Mass.) at concentrations of 0.5-2 μg/ml for 2 hrs. The plates were then washed with 0.2% Tween20/PBS, and blocked with 5% milk/PBS for 2 hrs before use. Phage or antibody was serially diluted with 5 μg/ml heparin (Sigma, St Louis, Mo.), 5% milk, PBS. Recombinant FGFR-1 (R&D Systems) was then added to a final concentration of 1 μg/ml. The mixture was incubated at room temperature for 1 hr before transfer to the FGF-2 coated plates, and incubated at room temperature for an additional 2 hrs. Plates were then washed 3 times with 0.2% Tween20/PBS. The bound receptors were detected using an anti-human Fc monoclonal antibody coupled with HRP (Pierce Biotechnology Inc., Rockford, Ill.) solution prepared according to supplier's instructions. Data were presented as % inhibition of ligand-receptor binding of the controls.

- Kd [1]: > 10000 nM
- Kd [2]: 0.7 nM
- Kd [3]: > 10000 nM
- Kd [4]: > 10000 nM
- Kd [5]: > 10000 nM
- Kd [6]: > 10000 nM
- binding to FGFR-4 [7]: moderate affinity
- binding to the other FGFRs [8]: little binding
- inhibition of ligand (FGF) mediated receptor phosphorylation ([9]; antibody): significantly inhibits
- receptor activation by the antibody by itself ([9]; no ligand): does not activated the receptor
- binding to FGFR-1(IIIc) [12]: strong binding affinity
- IC50 ([13]; immobilized FGF-1, read-out: IC50, blocking FGFR-1(IIIc) binding to FGF-1): ~5 nM
- IC50 ([13]; immobilized FGF-2, read-out: IC50, blocking FGFR-1(IIIc) binding to FGF-2): ~10 nM
B1: FR1-A1: antibody specific for FGFR-1(IIIc) and/or FGFR-4(IIIc); VH/VL SEQ ID NOS:15, 16 (antibody, listed as Homo sapiens, V domains shown)
VH: MAQVQLVQSGAEVKKPGSSVKVSCKASGQTFTGYYMHWVRQAPGQGLEWMGRIIPILGIANYAQKFQGRVTITADKSTSTAYMELSSLRSEDTAVYYCARGGDLGGMDVWGQG
VL: LEIVLTQSPLSLPVTPGEPASISCRSSQSLRHSNGYNYLDWYLQKPGQSPQLLIYLASNRASGVPDRFSGSGSGTDFTLKISRVEAEDVGVYYCMQALQIPPTFGPGTKVDIKRTVAA
- FGF-2 stimulated DNA synthesis (mitogenesis) of G18 cells [10]: decreased this stimulation in a dose-dependant manner
- body weight loss compared to the control ([11]; 2 mg/kg i.p.): ~9%
- reduction of non-fast food intake ([11]; 2 mg/kg): ~14%
- body weight loss compared to the control ([11]; 20 mg/kg i.p.): ~23%
- reduction of non-fast food intake ([11]; 20 mg/kg): ~44%
